Here are results for two molecules from article PMC9458469 (The Journal of Cell Biology, 2022).

Usually stoichiometry N stands for a count of units in the complex or per binding partner.

The target in series [1] is Hsp-12.1 (purified) (C. elegans). The experiment in a line: SEC. (In general: SEC sorts molecules by how far they enter the pores of the column.)
Series [2] concerns the molecule itself. The experiment in a line: SEC.

On to Hsp-12.1 (purified) (natural protein), for which, in series [1], the stoichiometry N stood at 4 subunits.

B1: Hsp-16.1 (purified) (natural protein, C. elegans, UniProt P34696 1-145, looked up)
chain: MSLYHYFRPAQRSVFGDLMRDMAQMERQFTPVCRGSPSESSEIVNNDQKFAINLNVSQFKPEDLKINLDGHTLSIQGEQELKTEHGYSKKSFSRVILLPEDVDVGAVASNLSEDGKLSIEAPKKEAIQGRSIPIQQAPVEQKTSE
As for B1, the “stoichiometry N” value in series [2] is about 34 subunits.
